Measurements taken from the Human Domainome abundance scans (Beltran et al. 2025).
± gives the uncertainty stated by the source.

B1: Dynamin-binding protein, residues 146 to 206; numbered along this chain, Q6XZF7 (parent)
chain: SMGQARALMGLSAQLDEELDFREGDVITIIGVPEPGWFEGELEGRRGIFPEGFVELLGPLR

Variants of: B1
Experiment: abundance fitness (aPCA) (normalised: wild type 0, dead -1); higher = more abundant; growth selection in yeast, the domain comes from the species named
Conditions: Homo sapiens

Variant | abundance fitness
SMGQARALMGLSAQLDEELDFREADVITIIGVPEPGWFEGELEGRRGIFPEGFVELLGPLR | -0.551 ± 0.079
SMGQARALMGVSAQLDEELDFREGDVITIIGVPEPGWFEGELEGRRGIFPEGFVELLGPLR | -0.402 ± 0.081
SMGQARALMGQSAQLDEELDFREGDVITIIGVPEPGWFEGELEGRRGIFPEGFVELLGPLR | 0.191 ± 0.072
PMGQARALMGLSAQLDEELDFREGDVITIIGVPEPGWFEGELEGRRGIFPEGFVELLGPLR | -0.661 ± 0.36
VMGQARALMGLSAQLDEELDFREGDVITIIGVPEPGWFEGELEGRRGIFPEGFVELLGPLR | 0.076 ± 0.11
RMGQARALMGLSAQLDEELDFREGDVITIIGVPEPGWFEGELEGRRGIFPEGFVELLGPLR | -0.319 ± 0.12
YMGQARALMGLSAQLDEELDFREGDVITIIGVPEPGWFEGELEGRRGIFPEGFVELLGPLR | 0.064 ± 0.06
TMGQARALMGLSAQLDEELDFREGDVITIIGVPEPGWFEGELEGRRGIFPEGFVELLGPLR | -0.092 ± 0.11
WMGQARALMGLSAQLDEELDFREGDVITIIGVPEPGWFEGELEGRRGIFPEGFVELLGPLR | -0.16 ± 0.27
SMGQARALMGLSAQQDEELDFREGDVITIIGVPEPGWFEGELEGRRGIFPEGFVELLGPLR | 0.137 ± 0.076
SMGQARALMGLSAQSDEELDFREGDVITIIGVPEPGWFEGELEGRRGIFPEGFVELLGPLR | 0.283 ± 0.059
SMGQARALMGLSAQFDEELDFREGDVITIIGVPEPGWFEGELEGRRGIFPEGFVELLGPLR | 0.037 ± 0.052
SMGQARALMGLSAQGDEELDFREGDVITIIGVPEPGWFEGELEGRRGIFPEGFVELLGPLR | 0.08 ± 0.082
SMGQARALMGLSAQEDEELDFREGDVITIIGVPEPGWFEGELEGRRGIFPEGFVELLGPLR | 0.034 ± 0.3
SMGQARALMGLSAQTDEELDFREGDVITIIGVPEPGWFEGELEGRRGIFPEGFVELLGPLR | 0.273 ± 0.12
SMGQARALMGLSAQLDEELDEREGDVITIIGVPEPGWFEGELEGRRGIFPEGFVELLGPLR | -0.481 ± 0.17
SMGQARALMGLSAQLDEELDIREGDVITIIGVPEPGWFEGELEGRRGIFPEGFVELLGPLR | -0.435 ± 0.065
SMGQARALMGLSAQLDEELDVREGDVITIIGVPEPGWFEGELEGRRGIFPEGFVELLGPLR | -0.711 ± 0.09
SMGQARALMGLSAQLDEELDTREGDVITIIGVPEPGWFEGELEGRRGIFPEGFVELLGPLR | -0.465 ± 0.11
SMGQARALMGLSAQLDEELDNREGDVITIIGVPEPGWFEGELEGRRGIFPEGFVELLGPLR | -0.832 ± 0.11
SMGQARALMGLSAQLDEEDDFREGDVITIIGVPEPGWFEGELEGRRGIFPEGFVELLGPLR | -0.413 ± 0.17
SMGQARALMGLSAQLDEEHDFREGDVITIIGVPEPGWFEGELEGRRGIFPEGFVELLGPLR | -0.768 ± 0.15

Variant | abundance fitness
SMGQARALMGLSAQLDEECDFREGDVITIIGVPEPGWFEGELEGRRGIFPEGFVELLGPLR | -0.684 ± 0.12
SMGQARALMGLSAQLDEEKDFREGDVITIIGVPEPGWFEGELEGRRGIFPEGFVELLGPLR | -0.705 ± 0.35
SMGQARALMGLSAQLDEEADFREGDVITIIGVPEPGWFEGELEGRRGIFPEGFVELLGPLR | -0.525 ± 0.076
SMWQARALMGLSAQLDEELDFREGDVITIIGVPEPGWFEGELEGRRGIFPEGFVELLGPLR | -0.227 ± 0.072
SMNQARALMGLSAQLDEELDFREGDVITIIGVPEPGWFEGELEGRRGIFPEGFVELLGPLR | 0.245 ± 0.043
SVGQARALMGLSAQLDEELDFREGDVITIIGVPEPGWFEGELEGRRGIFPEGFVELLGPLR | -0.277 ± 0.062
SIGQARALMGLSAQLDEELDFREGDVITIIGVPEPGWFEGELEGRRGIFPEGFVELLGPLR | -0.03 ± 0.058
SCGQARALMGLSAQLDEELDFREGDVITIIGVPEPGWFEGELEGRRGIFPEGFVELLGPLR | -0.521 ± 0.095
SMGLARALMGLSAQLDEELDFREGDVITIIGVPEPGWFEGELEGRRGIFPEGFVELLGPLR | -0.176 ± 0.047
SMGMARALMGLSAQLDEELDFREGDVITIIGVPEPGWFEGELEGRRGIFPEGFVELLGPLR | -0.065 ± 0.13
SMGQARALMGLSAQLNEELDFREGDVITIIGVPEPGWFEGELEGRRGIFPEGFVELLGPLR | -0.315 ± 0.1
SMGQARALMGLSAQLFEELDFREGDVITIIGVPEPGWFEGELEGRRGIFPEGFVELLGPLR | -0.763 ± 0.14
SMGQARALMGLSAILDEELDFREGDVITIIGVPEPGWFEGELEGRRGIFPEGFVELLGPLR | -0.354 ± 0.062
SMGQARALMGLSADLDEELDFREGDVITIIGVPEPGWFEGELEGRRGIFPEGFVELLGPLR | -0.145 ± 0.058
SMGQARALMGLSARLDEELDFREGDVITIIGVPEPGWFEGELEGRRGIFPEGFVELLGPLR | 0.142 ± 0.08
SMGQARALMGLSAVLDEELDFREGDVITIIGVPEPGWFEGELEGRRGIFPEGFVELLGPLR | -0.175 ± 0.082
SMGQARALMGLSAKLDEELDFREGDVITIIGVPEPGWFEGELEGRRGIFPEGFVELLGPLR | -0.092 ± 0.29
SMGQARALMGLSAYLDEELDFREGDVITIIGVPEPGWFEGELEGRRGIFPEGFVELLGPLR | -0.537 ± 0.16
SMGQARALMGLSAQLDEGLDFREGDVITIIGVPEPGWFEGELEGRRGIFPEGFVELLGPLR | -0.17 ± 0.039
SMGQARALMGLSAQLDEKLDFREGDVITIIGVPEPGWFEGELEGRRGIFPEGFVELLGPLR | 0.23 ± 0.38
SMGQARALMGLSAQLDEILDFREGDVITIIGVPEPGWFEGELEGRRGIFPEGFVELLGPLR | -0.212 ± 0.082
SMGQARALMGLSAQLDENLDFREGDVITIIGVPEPGWFEGELEGRRGIFPEGFVELLGPLR | -0.236 ± 0.093
